Test results as given in US20240343803A1.

Legend:
[1] = target: human PVRIG (AcroBiosystems, Cat NO. PVG-H52H4) (human) (UniProt Q6DKI7); experiment: ELISA, coated human PVRIG; negative control
[2] = target: cynomolgus monkey PVRIG (Novoprotein, Cat NO. C09B) (cynomolgus monkey); experiment: ELISA, coated cynomolgus PVRIG; negative control
[3] = target: cynomolgus monkey TIGIT ECD-mFc (cynomolgus monkey); experiment: ELISA, cynomolgus TIGIT ECD-mFc captured by anti-mouse IgG; negative control
[4] = target: human PVRIG-mFc protein (Acro, PVG-H5253) (human) (UniProt Q6DKI7); experiment: HTRF competition, PVRIG-mFc with Bio-CD112-His as competitor; negative control
Sequence of human PVRIG-mFc protein (Acro, PVG-H5253) (human) (Q6DKI7 41-171 limits assumed, form in doubt): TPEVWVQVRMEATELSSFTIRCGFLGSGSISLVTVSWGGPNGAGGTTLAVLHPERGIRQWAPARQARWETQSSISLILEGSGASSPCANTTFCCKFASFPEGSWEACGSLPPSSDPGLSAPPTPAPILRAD

Sequence of cynomolgus monkey TIGIT ECD-mFc (cynomolgus monkey) (chain, as listed by the source limits assumed): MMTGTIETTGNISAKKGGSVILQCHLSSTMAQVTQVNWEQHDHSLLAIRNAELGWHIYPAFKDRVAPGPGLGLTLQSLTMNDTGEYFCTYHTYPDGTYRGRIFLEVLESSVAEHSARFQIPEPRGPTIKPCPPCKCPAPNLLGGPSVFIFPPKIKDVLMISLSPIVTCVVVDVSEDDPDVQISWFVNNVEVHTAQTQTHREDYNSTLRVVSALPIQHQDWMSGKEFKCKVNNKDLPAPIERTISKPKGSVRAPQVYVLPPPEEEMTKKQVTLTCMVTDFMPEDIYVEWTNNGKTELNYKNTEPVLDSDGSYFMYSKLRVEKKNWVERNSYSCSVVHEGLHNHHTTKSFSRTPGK
Sequence of human PVRIG (AcroBiosystems, Cat NO. PVG-H52H4) (human) (Q6DKI7 41-171 limits assumed, form in doubt): as the sequence (Q6DKI7 41-171 limits assumed, form in doubt) above
Sequence of cynomolgus monkey PVRIG (Novoprotein, Cat NO. C09B) (cynomolgus monkey) (chain, as listed by the source): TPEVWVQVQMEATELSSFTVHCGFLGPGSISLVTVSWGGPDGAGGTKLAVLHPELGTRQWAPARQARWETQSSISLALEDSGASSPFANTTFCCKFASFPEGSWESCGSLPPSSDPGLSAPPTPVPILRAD

EC50 [1]: 40300 nM | EC50 [2]: 4 nM | EC50 [3]: 0.687 nM | IC50 [4]: 0.0302 nM
Substance: anti-Fluorescein-hIgG1 (antibody)
